Experimental findings from the supplement of paper PMC5998384 are described below.

For series [1], the system named is HeLa Kyoto. Kind of series: thermal stability score vs G1/S (z-score of summed log2 fold changes over temperatures); higher = more thermally stable than in G1/S.
Series [2] concerns HeLa Kyoto. In words: melting temperature (median over replicates), in situ; higher = more thermally stable.
Setting [3] is: cell cycle stage: early G1 (4.5 h after nocodazole release).
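Wherever melting temperature (median over replicates), in situ is given: HeLa Kyoto cells synchronized by double thymidine or nocodazole block, proteins quantified by TMT10plex mass spectrometry, three independent biological replicates.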
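Wherever thermal stability score vs G1/S (z-score of summed log2 fold changes over temperatures) is given: synchronized HeLa Kyoto cells, proteins quantified by TMT10plex mass spectrometry, three biological replicates, mitosis taken 0.5 h after nocodazole release, G1/S directly after double thymidine block.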

Sequence of LSM5 (chain, as listed by the source): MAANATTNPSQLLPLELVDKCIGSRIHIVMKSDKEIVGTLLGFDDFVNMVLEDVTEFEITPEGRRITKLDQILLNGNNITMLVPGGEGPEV

Consider LSM5, for which the thermal stability score was -2.66 in the series on HeLa Kyoto [1] (setting [3]) and -1.99 in the series on HeLa Kyoto [1] (cell cycle stage: mitosis). Also, the melting temperature was 55.9 °C with HeLa Kyoto [2] (cell cycle stage: G1/S) and 52.9 °C in the series with HeLa Kyoto [2] (cell cycle stage: mitosis).
Take “MAALGGDGLRLLSVSRPERPPESAALGGLGPGLCCWVSVFSCLSLACSYVGSLYVWKSELPRDHPAVIKRRFTSVLVVSSLSPLCVLLWRELTGIQPGTSLLTLMGFRLEGIFPAALLPLLLTMILFLGPLMQLSMDCPCDLADGLKVVLAPRSWARCLTDMRWLRNQVIAPLTEELVFRACMLPMLAPCMGLGPAVFTCPLFFGVAHFHHIIEQLRFRQSSVGNIFLSAAFQFSYTAVFGAYTAFLFIRTGHLIGPVLCHSFCNYMGFPAVCAALEHPQRRPLLAGYALGVGLFLLLLQPLTDPKLYGSLPLCVLLERAGDSEAPLCS [RCE1]”: the thermal stability score in the series on HeLa Kyoto [1] (setting [3]) was -0.209; with HeLa Kyoto [1] (cell cycle stage: mitosis) it was -0.247. In addition, the melting temperature in the series with HeLa Kyoto [2] (cell cycle stage: mitosis) turned out to be 55.3 °C.
In the case of “MAEFPSKVSTRTSSPAQGAEASVSALRPDLGFVRSRLGALMLLQLVLGLLVWALIADTPYHLYPAYGWVMFVAVFLWLVTIVLFNLYLFQLHMKLYMVPWPLVLMIFNISATVLYITAFIACSAAVDLTSLRGTRPYNQRAAASFFACLVMIAYGVSAFFSYQAWRGVGSNAATSQMAGGYA [PLLP]”, the values for the thermal stability score in the series on HeLa Kyoto [1] (setting [3]) and with HeLa Kyoto [1] (cell cycle stage: mitosis) were -2.71 and -3.25, respectively. The melting temperature stood at 56.7 °C in the series with HeLa Kyoto [2] (cell cycle stage: G1/S) and 58.5 °C in the series with HeLa Kyoto [2] (cell cycle stage: mitosis).
In the case of “MANAEVSVPVGDVVVVPTEGNEGENPEDTKTQVILQLQPVQQGLFIDGHFYNRIYEAGSENNTAVVAVETHTIHKIEEGIDTGTIEANEDMEIAYPITCGESKAILLWKKFVCPGINVKCVKFNDQLISPKHFVHLAGKSTLKDWKRAIRLGGIMLRKMMDSGQIDFYQHDKVCSNTCRSTKFDLLISSARAPVPGQQTSVVQTPTSADGSITQIAISEESMEEAGLEWNSALTAAVTMATEEGVKKDSEEISEDTLMFWKGIADVGLMEEVVCNIQKEIEELLRGVQQRLIQAPFQVTDAAVLNNVAHTFGLMDTVKKVLDNRRNQVEQGEEQFLYTLTDLERQLEEQKKQGQDHRLKSQTVQNVVLMPVSTPKPPKRPRLQRPASTTVLSPSPPVQQPQFTVISPITITPVGQSFSMGNIPVATLSQGSSPVTVHTLPSGPQLFRYATVVSSAKSSSPDTVTIHPSSSLALLSSTAMQDGSTLGNMTTMVSPVELVAMESGLTSAIQAVESTSEDGQTIIEIDPAPDPEAEDTEGKAVILETELRTEEKVVAEMEEHQHQVHNVEIVVLED [GMEB1]”, the thermal stability score came out at 0.789 in the series on HeLa Kyoto [1] (setting [3]) and 2.68 in the series on HeLa Kyoto [1] (cell cycle stage: mitosis). In the series with HeLa Kyoto [2] (cell cycle stage: G1/S), this substance gave a melting temperature of 49 °C.
On to “MEAVVNLYQEVMKHADPRIQGYPLMGSPLLMTSILLTYVYFVLSLGPRIMANRKPFQLRGFMIVYNFSLVALSLYIVYEFLMSGWLSTYTWRCDPVDYSNSPEALRMVRVAWLFLFSKFIELMDTVIFILRKKDGQVTFLHVFHHSVLPWSWWWGVKIAPGGMGSFHAMINSSVHVIMYLYYGLSAFGPVAQPYLWWKKHMTAIQLIQFVLVSLHISQYYFMSSCNYQYPVIIHLIWMYGTIFFMLFSNFWYHSYTKGKRLPRALQQNGAPGIAKVKAN [ELOVL1]”, for which the values for the thermal stability score in the series with HeLa Kyoto [1] (setting [3]) and in the series with HeLa Kyoto [1] (cell cycle stage: mitosis) were 2.04 and 1.9, respectively. In addition, the melting temperature came out at 52.8 °C in the series on HeLa Kyoto [2] (cell cycle stage: G1/S) and 52.4 °C in the series on HeLa Kyoto [2] (cell cycle stage: mitosis).
The matching figures for “MESALAVPRLPPHDPGTPVLSVVDMHTGGEPLRIVLAGCPEVSGPTLLAKRRYMRQHLDHVRRRLMFEPRGHRDMYGAVLVPSELPDAHLGVLFLHNEGYSSMCGHAVLALGRFALDFGLVPAPPAGTREARVNIHCPCGLVTAFVACEDGRSHGPVRFHSVPAFVLATDLMVDVPGHGKVMVDIAYGGAFYAFVTAEKLGLDICSAKTRDLVDAASAVTEAVKAQFKINHPDSEDLAFLYGTILTDGKDAYTKEPTTNICVFADEQVDRSPTGSGVTARIALQYHKGLLELNQMRAFKSSATGSVFTGKAVREAKCGDFKAVIVEVSGQAHYTGTASFIIEDDDPLRDGFLLK [L3HYPDH]”: 0.886, 0.62, 55.6 °C and 54.4 °C.
For “MESQKEARTLQEPVARPSGASSSQTPNDKERREGGAVPAAAALGAEADDDSADGLWELPVEPAERRPECTRCSRPQKVCLCPFLPAHPLHISTHLYIIQHPAEENKVLRTVPLLAACLPQDKCKVKIGRRFSEERDPELSTVCRKSGTLILYPGAEAANLEEFILDSPVYPSTIIIIDGTWSQAKDIFYKNSLFRHPKQVQLKTSISSQYVIRMQPTNRCLSTLECAAVALSILEKNNYIQETLLRPLQALCSFQLQHGAQIRLSKEHLLKNGLYPKPMPKNKRKLRKMELLMNSVKI [DTWD2]”, the thermal stability score stood at 0.37 with HeLa Kyoto [1] (setting [3]) and 0.624 with HeLa Kyoto [1] (cell cycle stage: mitosis). In the series on HeLa Kyoto [2] (cell cycle stage: mitosis), this substance had a melting temperature of 51.2 °C.
Consider “MNSGVAMKYGNDSSAELSELHSAALASLKGDIVELNKRLQQTERERDLLEKKLAKAQCEQSHLMREHEDVQERTTLRYEERITELHSVIAELNKKIDRLQGTTIREEDEYSELRSELSQSQHEVNEDSRSMDQDQTSVSIPENQSTMVTADMDNCSDLNSELQRVLTGLENVVCGRKKSSCSLSVAEVDKHIEQLTTASEHCDLAIKTVEEIEGVLGRDLYPNLAEERSRWEKELAGLREENESLTAMLCSKEEELNRTKATMNAIREERDRLRRRVRELQTRLQSVQATGPSSPGRLTSTNRPINPSTGELSTSSSSNDIPIAKIAERVKLSKTRSESSSSDRPVLGSEISSIGVSSSVAEHLAHSLQDCSNIQEIFQTLYSHGSAISESKIREFEVETERLNSRIEHLKSQNDLLTITLEECKSNAERMSMLVGKYESNATALRLALQYSEQCIEAYELLLALAESEQSLILGQFRAAGVGSSPGDQSGDENITQMLKRAHDCRKTAENAAKALLMKLDGSCGGAFAVAGCSVQPWESLSSNSHTSTTSSTASSCDTEFTKEDEQRLKDYIQQLKNDRAAVKLTMLELESIHIDPLSYDVKPRGDSQRLDLENAVLMQELMAMKEEMAELKAQLYLLEKEKKALELKLSTREAQEQAYLVHIEHLKSEVEEQKEQRMRSLSSTSSGSKDKPGKECADAASPALSLAELRTTCSENELAAEFTNAIRREKKLKARVQELVSALERLTKSSEIRHQQSAEFVNDLKRANSNLVAAYEKAKKKHQNKLKKLESQMMAMVERHETQVRMLKQRIALLEEENSRPHTNETSL [MCC]”, for which the thermal stability score in the series on HeLa Kyoto [1] (setting [3]) was 0.157; in the series on HeLa Kyoto [1] (cell cycle stage: mitosis) it was -0.438.
As to “MRRGERRDAGGPRPESPVPAGRASLEEPPDGPSAGQATGPGEGRRSTESEVYDDGTNTFFWRAHTLTVLFILTCTLGYVTLLEETPQDTAYNTKRGIVASILVFLCFGVTQAKDGPFSRPHPAYWRFWLCVSVVYELFLIFILFQTVQDGRQFLKYVDPKLGVPLPERDYGGNCLIYDPDNETDPFHNIWDKLDGFVPAHFLGWYLKTLMIRDWWMCMIISVMFEFLEYSLEHQLPNFSECWWDHWIMDVLVCNGLGIYCGMKTLEWLSLKTYKWQGLWNIPTYKGKMKRIAFQFTPYSWVRFEWKPASSLRRWLAVCGIILVFLLAELNTFYLKFVLWMPPEHYLVLLRLVFFVNVGGVAMREIYDFMDDPKPHKKLGPQAWLVAAITATELLIVVKYDPHTLTLSLPFYISQCWTLGSVLALTWTVWRFFLRDITLRYKETRWQKWQNKDDQGSTVGNGDQHPLGLDEDLLGPGVAEGEGAPTPN [PTDSS2]”, the thermal stability score was -0.906 with HeLa Kyoto [1] (setting [3]) and -3.56 in the series with HeLa Kyoto [1] (cell cycle stage: mitosis).
The matching figures for “MSGGDTRAAIARPRMAAAHGPVAPSSPEQVTLLPVQRSFFLPPFSGATPSTSLAESVLKVWHGAYNSGLLPQLMAQHSLAMAQNGAVPSEATKRDQNLKRGNWGNQIEFVLTSVGYAVGLGNVWRFPYLCYRNGGGAFMFPYFIMLIFCGIPLFFMELSFGQFASQGCLGVWRISPMFKGVGYGMMVVSTYIGIYYNVVICIAFYYFFSSMTHVLPWAYCNNPWNTHDCAGVLDASNLTNGSRPAALPSNLSHLLNHSLQRTSPSEEYWRLYVLKLSDDIGNFGEVRLPLLGCLGVSWLVVFLCLIRGVKSSGKVVYFTATFPYVVLTILFVRGVTLEGAFDGIMYYLTPQWDKILEAKVWGDAASQIFYSLGCAWGGLITMASYNKFHNNCYRDSVIISITNCATSVYAGFVIFSILGFMANHLGVDVSRVADHGPGLAFVAYPEALTLLPISPLWSLLFFFMLILLGLGTQFCLLETLVTAIVDEVGNEWILQKKTYVTLGVAVAGFLLGIPLTSQAGIYWLLLMDNYAASFSLVVISCIMCVAIMYIYGHRNYFQDIQMMLGFPPPLFFQICWRFVSPAIIFFILVFTVIQYQPITYNHYQYPGWAVAIGFLMALSSVLCIPLYAMFRLCRTDGDTLLQRLKNATKPSRDWGPALLEHRTGRYAPTIAPSPEDGFEVQPLHPDKAQIPIVGSNGSSRLQDSRI [SLC6A9]”: -0.03 and 1.01.
The matching figures for SPG11: -0.413 and -0.459.
